Patent US20120230981A1 (RESEARCH CORPORATION TECHNOLOGIES, published 2012)

B1: HiswtCH2 (wild type CH2 domain of human IgG1 with a His tag) (other)
chain: APELLGGPSVFLFPPKPKDTLMISRTPEVTCVVVDVSHEDPEVKFNWYVDGVEVHNAKTKPREEQYNSTYRVVSVLTVLHQDWLNGKEYKCKVSNKALPAPIEKTISKAKGQ
notes: also called wild type (WT) CH2; not shown: His tag, 'e.g., 6 histidine residues'

Legend:
[1] = biological target: T1, soluble, recombinant hFcRn (human, UniProt P55899 24-297; P61769 21-119, limits assumed, biotinylated in the yeast flow cytometry assays (biotin-soluble FcRn); site not stated); assay: competition, flow cytometry: IgG1 inhibits binding of soluble FcRn to yeast-displayed m01s at pH 6.0
T1 construct: also called rFcRn; soluble FcRn

[2] = biological target: T1, soluble, recombinant hFcRn; assay: Biacore (SPR), HiswtCH2 at 75-1200 nM
Description: For reference, the WT CH2 sequence (without the HIS tag) is shown in SEQ ID NO: 1. “HiswtCH2” of FIG. 1 is the WT CH2 sequence with a His tag, e.g., a group of histidine residues in a row, e.g., 6 histidine residues. […] HiswtCH2 was tested at 75, 150, 300, 600, 1200 nM. The A curves (1A, 2A, 3A, 4A, 5A, and 6A) are binding curves; the B curves (1B, 2B, 3B, 4B, 5B, and 6B) are fitted curves.

T1 sequence (P55899 24-297 limits assumed, chain 1 of 2): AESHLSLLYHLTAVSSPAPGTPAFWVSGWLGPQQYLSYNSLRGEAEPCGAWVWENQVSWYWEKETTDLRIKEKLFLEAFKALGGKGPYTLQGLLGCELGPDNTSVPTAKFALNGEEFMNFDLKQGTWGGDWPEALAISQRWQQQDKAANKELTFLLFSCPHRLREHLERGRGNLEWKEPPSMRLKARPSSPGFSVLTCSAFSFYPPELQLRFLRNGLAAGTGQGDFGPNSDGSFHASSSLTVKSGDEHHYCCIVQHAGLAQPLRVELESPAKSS
T1 sequence (P61769 21-119 limits assumed, chain 2 of 2): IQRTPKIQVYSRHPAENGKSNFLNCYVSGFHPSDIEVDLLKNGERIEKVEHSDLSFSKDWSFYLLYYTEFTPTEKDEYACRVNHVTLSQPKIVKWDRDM

Molecule | IC50 [1] | Kd [2] | koff [2] | kon [2]
IgG1 (antibody) | 629 nM |  |  | 
B1 |  | 90.8 nM | 0.00184 s⁻¹ | 20300 M⁻¹ s⁻¹
